In paper PMC5603870 (2017):

Molecular target: T1, CD20 (Homo sapiens, UniProt P11836)
T1 chain: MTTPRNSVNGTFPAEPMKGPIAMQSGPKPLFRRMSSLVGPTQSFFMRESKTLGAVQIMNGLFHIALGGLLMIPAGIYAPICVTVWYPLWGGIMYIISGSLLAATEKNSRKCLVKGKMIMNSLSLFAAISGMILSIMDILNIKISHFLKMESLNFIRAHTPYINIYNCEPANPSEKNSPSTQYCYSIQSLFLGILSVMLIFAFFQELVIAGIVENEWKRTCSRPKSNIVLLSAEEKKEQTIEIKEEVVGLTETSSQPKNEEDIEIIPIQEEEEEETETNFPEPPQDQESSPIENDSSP
Experiment: saturation binding

B1: Rituximab (antibody, V domains shown)
VH: QVQLQQPGAELVKPGASVKMSCKASGYTFTSYNMHWVKQTPGRGLEWIGAIYPGNGDTSYNQKFKGKATLTADKSSSTAYMQLSSLTSEDSAVYYCARSTYYGGDWYFNVWGAGTTVTVSA
VL: QIVLSQSPAILSASPGEKVTMTCRASSSVSYIHWFQQKPGSSPKPWIYATSNLASGVPVRFSGSGSGTSYSLTISRVEAEDAATYYCQQWTSNPPTFGGGTKLEIK
modifications: 90Y-DOTA conjugated
Kd: 2.84 nM
